In the domain aggregation screens of Martell et al. (2025):

Assay: soluble fraction after stress (log2 fold change); higher = more stays soluble; pooled small domains, quantitative proteomics
Conditions: stress: pH 4
Method in brief: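 Values are on a log2 scale, where higher means more of the domain stayed soluble after pH 4 stress. They are fold changes in the soluble amount of each domain from pooled custom libraries, measured by high-throughput quantitative proteomics. The fold change is taken to reflect aggregation propensity.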

Sequence	soluble fraction (log2)
HMEDIVDLVVEPEAAGRRLDAWLASRIERLSRSRIKALIESGHVAIGGATIVEAKKPVNSGDVVQLSVPEG	-0.121
HMEDKQRRMGELVALLNRAAYAYYTKDEPIMADVQYDRLYDELLSLEKETGVQMADSPTHRV	-0.871
HMEDLMEERKEHLLSVMKDPAYVPMKQKELAMLLNVPKGLREELNQVLDALVAEGSVVMSKRGKYTIPQ	0.189
HMEDNLVTYPNPTSDYIYVSKKVDLTVVNMLGDILIQKQNINVLDVTELTPGMYTIVIRYNNVTTNKRIIK	-0.335
HMEDPFATLGVHREASLDEIKRAYRRLAMFWHPDRNPEAVAGTEFKRVHAAYELLLDPQRLAEWQQAQAT	-0.424
HMEDPLAAQWKQGRKLFHDDYGYGIISKAFTAGDELVIMVQFENGGEKRFLPKYQAHNLLLVEQ	-1.3
HMEDQVITQFNMRLIRAVMPQGAPMIVVYEDPKDYPGLFVARLFDGRKSTHLIALADTLEDI	-0.351
HMEDVDTAALEKVIATAKGLNKNDYTATTWTTMQAALTNAEKALEAKKSQTSVDEAAKTLQAAIDGLKKAS	-0.103
HMEDVPYMIKLPSHHYLTKMVDGSTGWSLVQNSNTVVGSSKEELLKQYPEYEDFIVQEPLNV	-0.336
HMEDVSTLAVKQRIDDLVKQENPAKPLSDSDIVARLKTDGIYIARRTVAKYRMELNIPSSSARKRAQQFS	0.266
HMEDWTPERFVGAFVSGGPALRDEILLAATKDLSHAQATRLLKLAEARGLVHRSQPGPSERVRFVVARK	-0.0732
HMEDYTPLQELGLKARYIELLEKGGIFSVEDLVQKSVDDLKDIDGIGEKTAKEIWEIVDSMVDF	-0.308
HMEDYYKEDYYTEVLKIPKEYIKGFQYYLIEDAEFVNALNAKNKTMTSFLAKKLASDYIEIIHQEQ	-1.44
HMEEDDGVDFHERLTELNDEQVYYLINTEPAKVIALALDQLGQKRKINIMNRFNPDMKHSIIMELGKL	-0.666
HMEEDGAPLESREVLLDQAISQGKGTQWTIATETKLEDHIVSGAYSTDGKVTLAVFSPLGDGKYEFSSSVN	-0.172
HMEEDPIIIAQRFLNIFRQLHIFSEEKKESFNKMLLEQPAEIRGALRSLPGGGLLQDYIDDLESKA	-0.711
HMEEEEITIHIIGEVKYPGIVILKTGQRIIDAIDAAGGETEEADLNKINLAQLLSDGDKIYVPSINDN	-1.05
HMEEFAGYINGQPYYGPTHQHRGVKMVGAEHTQRPHPLVWDSVAKSLDNYDNRFQWVNGNLLQVV	0.3
HMEEFGRRLKERMIDKNMTEAELAQKTELWSSILTSYLKGERFPGYYTLLRIAEALDVSIDFLLGLRDEPE	-2.01

Sequence	soluble fraction (log2)
HMEEILLSVKADGTYWVDQKEVTLDEVGALLDKEPDRLLNIFMDEKVPVRHFINVVDIAKVKREGRFII	-1.74
HMEEIQLILAKNLKSIREKEKLSLEKVSQLTGVSKTMIGQIERGDSSPTLTTIWKIANGLKVSFTSLINNP	0.182
HMEEKKYEVGDVVSFNYLYKNSFAEGKVSSLIHSGTITRIIDGRPAPYLINRGTGWLSNDLILT	-0.179
HMEEKNNIIVSYIEDKISELEKASMYVPNENKEKLIMAFKNRNEDIDVIKTRIDTIFNNSVAAYKENME	-1.32
HMEEKTMNLPPSAKLVYKILSYEGNLTQKEIINMTYLPERTVRHALELLLGKRLITRQAYLNDARQSVYG	-0.265
HMEEKVEVPNLSGKTYQQAKALLESYGLVAAKGGEEESEEPVGKVSRWSSAGKSVKKGTTITVWISGGI	0.1
HMEEKWKENYEKIKLFISINNRYPSVYSEDKEEGLIGSFMSNQKRRKNKLSKEKMALFEALPNWIWE	-0.812
HMEELNFYPNPAYKYINLDYVGLKEIYTVLGKKLLETYDTRINISNLNSGIYLIKFKNQALRFVK	-0.32
HMEELVGFEEKVRSILTSPLSAKEIKEKTHIEIDTRKLSKMLSELSFIKTEKKNGKKIFRLVS	-0.0997
HMEEMADILKTRIDTLDLSTRTLNALTGANIRTVGGIARKKKEDLLELAGMGEKGIQEIKKVLGGFGITL	0.15
HMEEPEYELLRQAVLALPEKYRLPIHLYYYEEYSVREIAEILQRKESAVQTQLQRGREKIRRSLTEKGVS	-0.941
HMEEPLIISIDSNGAVYLEVDSFKDQSIEMSSLREIIEKIILANPDIQVVVRGDSEVKYEKVMDLMSILQS	-1.95
HMEEQGLPLVIISDGKVLAQNLTLRSLDRAWLQDQLTQHGHSKPEQVFLLTVDERGAVYYVPKE	-1.86
HMEEQQIQLIQMKMEKDHKYVGKKISELRIKNMLIVLIKRGDEDIIPRAEVKIKEGDILVLSAQSYEG	-0.29
HMEETAFEKLSPLQKLRALGKPLTMINMRDGSQIAGSVQRSDDKFLYLDTGDGIAKLPVEEILRRTPM	0.13
HMEETIVFGQQKAINALSSDAGLSSNELDSYLKKRYKRPLYQLSKSEGAELIQGFQDGSLSKASIMDYVS	0.346
HMEEVIEVEGKITAVLPSTMFRAELENGHQVLAHISGKLRKHFIKITVGDIVKMEMSTQDLQKARIV	-0.831
HMEEVRFPLKKEILLWALKEAQVDEDEVFRKFTNLEKWINGEKHPTFKQIESLANYLKIPFGYMFLEKPPI	-1.47
